Results: patent publication US20250161472A1 (BIOATLA, published 2025)
Where two headings read alike, the source gives them in different places.

B1: LC-G049C (antibody, V domains shown)
VH: EVQLQQSGPELVKPGASVKISCKTSGYTFTEYTMHWMKQSHRKSLEWIGGINTNNGGTGYNQKFKGKATLTVDKSSSTAYMELRSLTSEDSAVYFCARGSLYSYGNSYFDYWGQGTLVTVSS
VL: QIVLTQSPAIMSASPGEKVTITCSATSSVSYMHWFQQKPGTSPKLWIYCTSNLASGVPARFSGSGSGTSYSLTISRMEAEDAATYYCQQRSSYPFTFGQGTKVEIK
notes: CPE single point mutant of parent VL 48.6-LC-WT
B2: LC-F097E (antibody, V domains shown)
VH: EVQLQQSGPELVKPGASVKISCKTSGYTFTEYTMHWMKQSHRKSLEWIGGINTNNGGTGYNQKFKGKATLTVDKSSSTAYMELRSLTSEDSAVYFCARGSLYSYGNSYFDYWGQGTLVTVSS
VL: QIVLTQSPAIMSASPGEKVTITCSATSSVSYMHWFQQKPGTSPKLWIYGTSNLASGVPARFSGSGSGTSYSLTISRMEAEDAATYYCQQRSSYPFTEGQGTKVEIK
notes: as for B1
B3: LC-G049H (antibody, V domains shown)
VH: EVQLQQSGPELVKPGASVKISCKTSGYTFTEYTMHWMKQSHRKSLEWIGGINTNNGGTGYNQKFKGKATLTVDKSSSTAYMELRSLTSEDSAVYFCARGSLYSYGNSYFDYWGQGTLVTVSS
VL: QIVLTQSPAIMSASPGEKVTITCSATSSVSYMHWFQQKPGTSPKLWIYHTSNLASGVPARFSGSGSGTSYSLTISRMEAEDAATYYCQQRSSYPFTFGQGTKVEIK
notes: as for B1
B4: LC-G049P (antibody, V domains shown)
VH: EVQLQQSGPELVKPGASVKISCKTSGYTFTEYTMHWMKQSHRKSLEWIGGINTNNGGTGYNQKFKGKATLTVDKSSSTAYMELRSLTSEDSAVYFCARGSLYSYGNSYFDYWGQGTLVTVSS
VL: QIVLTQSPAIMSASPGEKVTITCSATSSVSYMHWFQQKPGTSPKLWIYPTSNLASGVPARFSGSGSGTSYSLTISRMEAEDAATYYCQQRSSYPFTFGQGTKVEIK
notes: as for B1
B5: LC-H033G (antibody, V domains shown)
VH: EVQLQQSGPELVKPGASVKISCKTSGYTFTEYTMHWMKQSHRKSLEWIGGINTNNGGTGYNQKFKGKATLTVDKSSSTAYMELRSLTSEDSAVYFCARGSLYSYGNSYFDYWGQGTLVTVSS
VL: QIVLTQSPAIMSASPGEKVTITCSATSSVSYMGWFQQKPGTSPKLWIYGTSNLASGVPARFSGSGSGTSYSLTISRMEAEDAATYYCQQRSSYPFTFGQGTKVEIK
notes: as for B1
B6: LC-H033L (antibody, V domains shown)
VH: EVQLQQSGPELVKPGASVKISCKTSGYTFTEYTMHWMKQSHRKSLEWIGGINTNNGGTGYNQKFKGKATLTVDKSSSTAYMELRSLTSEDSAVYFCARGSLYSYGNSYFDYWGQGTLVTVSS
VL: QIVLTQSPAIMSASPGEKVTITCSATSSVSYMLWFQQKPGTSPKLWIYGTSNLASGVPARFSGSGSGTSYSLTISRMEAEDAATYYCQQRSSYPFTFGQGTKVEIK
notes: as for B1
B7: HC-N052C (antibody, V domains shown)
VH: EVQLQQSGPELVKPGASVKISCKTSGYTFTEYTMHWMKQSHRKSLEWIGGICTNNGGTGYNQKFKGKATLTVDKSSSTAYMELRSLTSEDSAVYFCARGSLYSYGNSYFDYWGQGTLVTVSS
VL: QIVLTQSPAIMSASPGEKVTITCSATSSVSYMHWFQQKPGTSPKLWIYGTSNLASGVPARFSGSGSGTSYSLTISRMEAEDAATYYCQQRSSYPFTFGQGTKVEIK
notes: CPE single point mutant of parent VH 48.6-HC-WT
B8: HC-N052L (antibody, V domains shown)
VH: EVQLQQSGPELVKPGASVKISCKTSGYTFTEYTMHWMKQSHRKSLEWIGGILTNNGGTGYNQKFKGKATLTVDKSSSTAYMELRSLTSEDSAVYFCARGSLYSYGNSYFDYWGQGTLVTVSS
VL: QIVLTQSPAIMSASPGEKVTITCSATSSVSYMHWFQQKPGTSPKLWIYGTSNLASGVPARFSGSGSGTSYSLTISRMEAEDAATYYCQQRSSYPFTFGQGTKVEIK
notes: as for B7
B9: HC-N052V (antibody, V domains shown)
VH: EVQLQQSGPELVKPGASVKISCKTSGYTFTEYTMHWMKQSHRKSLEWIGGIVTNNGGTGYNQKFKGKATLTVDKSSSTAYMELRSLTSEDSAVYFCARGSLYSYGNSYFDYWGQGTLVTVSS
VL: QIVLTQSPAIMSASPGEKVTITCSATSSVSYMHWFQQKPGTSPKLWIYGTSNLASGVPARFSGSGSGTSYSLTISRMEAEDAATYYCQQRSSYPFTFGQGTKVEIK
notes: as for B7
B10: HC-R098H (antibody, V domains shown)
VH: EVQLQQSGPELVKPGASVKISCKTSGYTFTEYTMHWMKQSHRKSLEWIGGINTNNGGTGYNQKFKGKATLTVDKSSSTAYMELRSLTSEDSAVYFCAHGSLYSYGNSYFDYWGQGTLVTVSS
VL: QIVLTQSPAIMSASPGEKVTITCSATSSVSYMHWFQQKPGTSPKLWIYGTSNLASGVPARFSGSGSGTSYSLTISRMEAEDAATYYCQQRSSYPFTFGQGTKVEIK
notes: as for B7
B11: HC-R098Q (antibody, V domains shown)
VH: EVQLQQSGPELVKPGASVKISCKTSGYTFTEYTMHWMKQSHRKSLEWIGGINTNNGGTGYNQKFKGKATLTVDKSSSTAYMELRSLTSEDSAVYFCAQGSLYSYGNSYFDYWGQGTLVTVSS
VL: QIVLTQSPAIMSASPGEKVTITCSATSSVSYMHWFQQKPGTSPKLWIYGTSNLASGVPARFSGSGSGTSYSLTISRMEAEDAATYYCQQRSSYPFTFGQGTKVEIK
notes: as for B7
B12: HC-S103G (antibody, V domains shown)
VH: EVQLQQSGPELVKPGASVKISCKTSGYTFTEYTMHWMKQSHRKSLEWIGGINTNNGGTGYNQKFKGKATLTVDKSSSTAYMELRSLTSEDSAVYFCARGSLYGYGNSYFDYWGQGTLVTVSS
VL: QIVLTQSPAIMSASPGEKVTITCSATSSVSYMHWFQQKPGTSPKLWIYGTSNLASGVPARFSGSGSGTSYSLTISRMEAEDAATYYCQQRSSYPFTFGQGTKVEIK
notes: as for B7
B13: HC-T033C (antibody, V domains shown)
VH: EVQLQQSGPELVKPGASVKISCKTSGYTFTEYCMHWMKQSHRKSLEWIGGINTNNGGTGYNQKFKGKATLTVDKSSSTAYMELRSLTSEDSAVYFCARGSLYSYGNSYFDYWGQGTLVTVSS
VL: QIVLTQSPAIMSASPGEKVTITCSATSSVSYMHWFQQKPGTSPKLWIYGTSNLASGVPARFSGSGSGTSYSLTISRMEAEDAATYYCQQRSSYPFTFGQGTKVEIK
notes: as for B7
B14: HC-T053D (antibody, V domains shown)
VH: EVQLQQSGPELVKPGASVKISCKTSGYTFTEYTMHWMKQSHRKSLEWIGGINDNNGGTGYNQKFKGKATLTVDKSSSTAYMELRSLTSEDSAVYFCARGSLYSYGNSYFDYWGQGTLVTVSS
VL: QIVLTQSPAIMSASPGEKVTITCSATSSVSYMHWFQQKPGTSPKLWIYGTSNLASGVPARFSGSGSGTSYSLTISRMEAEDAATYYCQQRSSYPFTFGQGTKVEIK
notes: as for B7
B15: HC-T053E (antibody, V domains shown)
VH: EVQLQQSGPELVKPGASVKISCKTSGYTFTEYTMHWMKQSHRKSLEWIGGINENNGGTGYNQKFKGKATLTVDKSSSTAYMELRSLTSEDSAVYFCARGSLYSYGNSYFDYWGQGTLVTVSS
VL: QIVLTQSPAIMSASPGEKVTITCSATSSVSYMHWFQQKPGTSPKLWIYGTSNLASGVPARFSGSGSGTSYSLTISRMEAEDAATYYCQQRSSYPFTFGQGTKVEIK
notes: as for B7
B16: HC-W112L (antibody, V domains shown)
VH: EVQLQQSGPELVKPGASVKISCKTSGYTFTEYTMHWMKQSHRKSLEWIGGINTNNGGTGYNQKFKGKATLTVDKSSSTAYMELRSLTSEDSAVYFCARGSLYSYGNSYFDYLGQGTLVTVSS
VL: QIVLTQSPAIMSASPGEKVTITCSATSSVSYMHWFQQKPGTSPKLWIYGTSNLASGVPARFSGSGSGTSYSLTISRMEAEDAATYYCQQRSSYPFTFGQGTKVEIK
notes: as for B7
B17: HC-Y032D (antibody, V domains shown)
VH: EVQLQQSGPELVKPGASVKISCKTSGYTFTEDTMHWMKQSHRKSLEWIGGINTNNGGTGYNQKFKGKATLTVDKSSSTAYMELRSLTSEDSAVYFCARGSLYSYGNSYFDYWGQGTLVTVSS
VL: QIVLTQSPAIMSASPGEKVTITCSATSSVSYMHWFQQKPGTSPKLWIYGTSNLASGVPARFSGSGSGTSYSLTISRMEAEDAATYYCQQRSSYPFTFGQGTKVEIK
notes: as for B7
B18: HC-Y111C (antibody, V domains shown)
VH: EVQLQQSGPELVKPGASVKISCKTSGYTFTEYTMHWMKQSHRKSLEWIGGINTNNGGTGYNQKFKGKATLTVDKSSSTAYMELRSLTSEDSAVYFCARGSLYSYGNSYFDCWGQGTLVTVSS
VL: QIVLTQSPAIMSASPGEKVTITCSATSSVSYMHWFQQKPGTSPKLWIYGTSNLASGVPARFSGSGSGTSYSLTISRMEAEDAATYYCQQRSSYPFTFGQGTKVEIK
notes: as for B7
B19: HC-Y111T (antibody, V domains shown)
VH: EVQLQQSGPELVKPGASVKISCKTSGYTFTEYTMHWMKQSHRKSLEWIGGINTNNGGTGYNQKFKGKATLTVDKSSSTAYMELRSLTSEDSAVYFCARGSLYSYGNSYFDTWGQGTLVTVSS
VL: QIVLTQSPAIMSASPGEKVTITCSATSSVSYMHWFQQKPGTSPKLWIYGTSNLASGVPARFSGSGSGTSYSLTISRMEAEDAATYYCQQRSSYPFTFGQGTKVEIK
notes: as for B7

Columns and labels:
Design in all cases: unit not given here
[1] = target: T1, human ROR2 (receptor tyrosine kinase-like orphan receptor 2) (human, UniProt Q01974 34-403, limits assumed); experiment: affinity ELISA on human ROR2, pH 6.0
T1 construct: Antigen of the ELISA, SPR and pH titration assays; also called hROR2
T1 sequence (Q01974 34-403 limits assumed): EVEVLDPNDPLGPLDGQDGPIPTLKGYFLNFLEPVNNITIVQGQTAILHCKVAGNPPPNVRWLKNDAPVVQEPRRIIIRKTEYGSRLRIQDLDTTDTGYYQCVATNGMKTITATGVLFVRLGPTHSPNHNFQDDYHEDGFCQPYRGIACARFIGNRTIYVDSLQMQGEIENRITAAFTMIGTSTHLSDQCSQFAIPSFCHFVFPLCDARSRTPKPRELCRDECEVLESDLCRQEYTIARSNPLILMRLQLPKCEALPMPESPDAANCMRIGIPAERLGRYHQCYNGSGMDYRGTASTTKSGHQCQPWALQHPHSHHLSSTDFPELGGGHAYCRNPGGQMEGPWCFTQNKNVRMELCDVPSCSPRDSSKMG

[2] = target: T1, human ROR2 (receptor tyrosine …); experiment: affinity ELISA on human ROR2, pH 7.4
[3] = target: T1, human ROR2 (receptor tyrosine …); experiment: affinity ELISA on human ROR2, pH 6.0; remark: listed apart in the source
[4] = target: T1, human ROR2 (receptor tyrosine …); experiment: affinity ELISA on human ROR2, pH 7.4; remark: listed apart in the source

Affinity ELISA, pH 6.0 [1] | Affinity ELISA, pH 7.4 [2] | Affinity ELISA, pH 6.0 [3] | Affinity ELISA, pH 7.4 [4] | Binder
0.468 | 0.133 |  |  | B1
0.489 | 0.215 |  |  | B2
1.87 | 0.118 |  |  | B3
0.66 | 0.268 |  |  | B4
1.1 | 0.536 |  |  | B5
0.69 | 0.332 |  |  | B6
 |  | 0.995 | 0.431 | B7
 |  | 0.911 | 0.433 | B8
 |  | 0.87 | 0.34 | B9
 |  | 0.928 | 0.353 | B10
 |  | 0.799 | 0.276 | B11
 |  | 0.794 | 0.655 | B12
 |  | 0.626 | 0.232 | B13
 |  | 1.11 | 0.222 | B14
 |  | 0.54 | 0.157 | B15
 |  | 1.75 | 1.7 | B16
 |  | 1.47 | 0.51 | B17
 |  | 1.08 | 0.793 | B18
 |  | 1.86 | 1.4 | B19
